Test results published in paper PMC7996396, “Affinity and Structural Analysis of the U1A RNA Recognition Motif with Engineered Methionines to Improve Experimental Phasing”.

How the values were obtained:
[1] = biological target: TBP6.9 (Homo sapiens (lab-evolved)) (UniProt P09012); assay: ITC; conditions: ITC: 50 mM Na-HEPES pH 7.5, 50 mM NaCl, 50 mM KCl, 2 mM MgCl2, 5 mM beta-mercaptoethanol, 20 C; protein in syringe, RNA in cell
[2] = biological target: TBP6.9(F34M/F37M/F77M) 7Se-Met (Homo sapiens (lab-evolved)) (UniProt P09012); assay: ITC; conditions: ITC: 50 mM Na-HEPES pH 7.5, 50 mM NaCl, 50 mM KCl, 2 mM MgCl2, 5 mM beta-mercaptoethanol, 20 C; protein in syringe, RNA in cell
TBP6.9(F34M/F37M/F77M) 7Se-Met (Homo sapiens (lab-evolved)), sequence (P09012 whole entry, stated change not applied): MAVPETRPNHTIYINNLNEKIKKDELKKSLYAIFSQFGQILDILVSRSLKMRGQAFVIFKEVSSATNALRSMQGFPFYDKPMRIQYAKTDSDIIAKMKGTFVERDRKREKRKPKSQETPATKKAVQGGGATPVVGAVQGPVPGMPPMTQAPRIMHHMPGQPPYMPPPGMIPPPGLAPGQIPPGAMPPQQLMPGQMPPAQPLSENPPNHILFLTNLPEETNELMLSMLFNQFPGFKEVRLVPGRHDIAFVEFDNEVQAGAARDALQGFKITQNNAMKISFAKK

[3] = biological target: dmU1A (U1A RRM1 Y31H/Q36R) (Homo sapiens, UniProt P09012 1-98, Y31H;Q36R); assay: ITC; ITC: 50 mM Na-HEPES pH 7.5, 50 mM NaCl, 50 mM KCl, 2 mM MgCl2, 5 mM beta-mercaptoethanol, 20 C; protein in syringe, RNA in cell; conditions: protein: recombinant; tags: N-terminal 6xHis removed with TEV protease; hairpin, loop closed by C65-G76
dmU1A (U1A RRM1 Y31H/Q36R), sequence (P09012 1-98 Y31H/Q36R): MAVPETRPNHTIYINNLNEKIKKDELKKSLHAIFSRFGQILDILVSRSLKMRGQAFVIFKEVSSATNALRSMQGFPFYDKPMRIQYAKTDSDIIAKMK

dmU1A(F37M/F77M) 7Se-Met = dmU1A(F37M/F77M) 7Se-Met (Homo sapiens, UniProt P09012 1-98, Y31H;Q36R;F37M;F77M); assay: ITC; Se-Met protein; ITC: 50 mM Na-HEPES pH 7.5, 50 mM NaCl, 50 mM KCl, 2 mM MgCl2, 5 mM beta-mercaptoethanol, 20 C; protein in syringe, RNA in cell; conditions: protein: recombinant; tags: N-terminal 6xHis removed with TEV protease; hairpin, loop closed by C65-G76
dmU1A(F37M/F77M) 7Se-Met, sequence (P09012 1-98 Y31H/Q36R/F37M/F77M): as the sequence (P09012 1-98 Y31H/Q36R) above, with F37M, F77M counted along it

TBP6.9 (Homo sapiens (lab-evolved)), sequence (P09012 whole entry, stated change not applied): as the sequence (P09012 whole entry, stated change not applied) above

Molecule	Kd [1] [nM]	Kd [2] [nM]	Kd [3] [nM]	Kd (dmU1A(F37M/F77M) 7Se-Met) [nM]
GGAGAUCUGAGCCUGGGAGCUCUCUCC [HIV-1 TAR 27-mer]	8.5	13.5		
GCAGAUCUGAGCCCGAAAGGAGCUCUCUGC [GNRA-TAR 30-mer]	87.8	69.8		
CGAAUCCAUUGCACUCCGGAUUCG (structured_RNA) [hpII 24-mer (U1 snRNA hairpin II)]			152 ± 7	59.7 ± 11.4
